Results from article PMC4856591 (Structure (London, England : 1993), 2016).

Target: the molecule itself
Assay: SAXS

B1: Human PKG Iβ LZ:CNB-A/B (residues 1-369) (domain or fragment, UniProt Q13976-2 1-369, looked up)
chain: MGTLRDLQYALQEKIEELRQRDALIDELELELDQKDELIQKLQNELDKYRSVIRPATQQAQKQSASTLQGEPRTKRQAISAEPTAFDIQDLSHVTLPFYPKSPQSKDLIKEAILDNDFMKNLELSQIQEIVDCMYPVEYGKDSCIIKEGDVGSLVYVMEDGKVEVTKEGVKLCTMGPGKVFGELAILYNCTRTATVKTLVNVKLWAIDRQCFQTIMMRTGLIKHTEYMEFLKSVPTFQSLPEEILSKLADVLEETHYENGEYIIRQGARGDTFFIISKGTVNVTREDSPSEDPVFLRTLGKGDWFGEKALQGEDVRTANVIAAEAVTCLVIDRDSFKHLIGGLDDVSNKAYEDAEAKAKYEAEAAFFAN
binding result: binds
